Literature values in publication PMC4741438, “Targeting the SIN3A-PF1 interaction inhibits epithelial to mesenchymal transition and maintenance of a stem cell phenotype in triple negative breast cancer” (Oncotarget, 2015).

System: PAH2
Conditions: in comparison to MAD
Excerpt: The PAH2 domain of SIN3 mediates interactions with a restricted subset of factors containing a conserved SIN3 interaction domain (SID) with homology to amino acids 5-24 of the prototypic PAH2-binding protein, the transcriptional repressor MAD [19-22]. […] Therefore, the use of small molecules based on in silico modeling of the MAD-SID sequence to prevent recruitment of the PF1-containing complexes represents a new and potentially clinically effective therapeutic strategy. While it cannot be ruled out that the effects of SID treatment act through inhibiting the interaction of additional PAH2-binding proteins with SIN3, the finding that PF1 kn ...

B1: PF1: plant homeodomain (PHD)-containing protein PF1 (PHF12) (protein)
chain: MWEKMETKTIVYDLDTSGGLMEQIQALLAPPKTDEAEKRSRKPEKEPRRSGRATNHDSCDSCKEGGDLLCCDHCPAAFHLQCCNPPLSEEMLPPGEWMCHRCTVRRKKREQKKELGHVNGLVDKSGKRTTSPSSDTDLLDRSASKTELKAIAHARILERRASRPGTPTSSASTETPTSEQNDVDEDIIDVDEEPVAAEPDYVQPQLRRPFELLIAAAMERNPTQFQLPNELTCTTALPGSSKRRRKEETTGKNVKKTQHELDHNGLVPLPVKVCFTCNRSCRVAPLIQCDYCPLLFHMDCLEPPLTAMPLGRWMCPNHIEHVVLNQKNMTLSNRCQVFDRFQDTVSQHVVKVDFLNRIHKKHPPNRRVLQSVKRRSLKVPDAIKSQYQFPPPLIAPAAIRDGELICNGIPEESQMHLLNSEHLATQAEQQEWLCSVVALQCSILKHLSAKQMPSHWDSEQTEKADIKPVIVTDSSVTTSLQTADKTPTPSHYPLSCPSGISTQNSLSCSPPHQSPALEDIGCSSCAEKSKKTPCGTANGPVNTEVKANGPHLYSSPTDSTDPRRLPGANTPLPGLSHRQGWPRPLTPPAAGGLQNHTVGIIVKTENATGPSSCPQRSLVPVPSLPPSIPSSCASIENTSTLQRKTVQSQIGPPLTDSRPLGSPPNATRVLTPPQAAGDGILATTANQRFSSPAPSSDGKVSPGTLSIGSALTVPSFPANSTAMVDLTNSLRAFMDVNGEIEINMLDEKLIKFLALQRIHQLFPSRVQPSPGSVGTHQLASGGHHIEVQRKEVQARAVFYPLLGLGGAVNMCYRTLYIGTGADMDVCLTNYGHCNYVSGKHACIFYDENTKHYELLNYSEHGTTVDNVLYSCDFSEKTPPTPPSSIVAKVQSVIRRRRHQKQDEEPSEEAAMMSSQAQGPQRRPCNCKASSSSLIGGSGAGWEGTALLHHGSYIKLGCLQFVFSITEFATKQPKGDASLLQDGVLAEKLSLKPHQGPVLRSNSVP
For B1, the “affinity for PAH2, fold lower than MAD” value is given as 10 fold.
